Data from patent US20120100159A1 (Genentech, published 2012).
Where a chain is given by its changes, count along the chain named.

T1: recombinant gD:human TAT226 fusion protein expressed on HCT116#9-4 cells (herpes simplex virus type 1; human, UniProt Q8N2G4 23-141)
T1 sequence: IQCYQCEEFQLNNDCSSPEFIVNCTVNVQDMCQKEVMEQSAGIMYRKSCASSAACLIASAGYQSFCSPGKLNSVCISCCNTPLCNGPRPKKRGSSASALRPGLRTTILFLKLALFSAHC

T2: human TAT226 expressed on the surface of OVCAR3 cells (human, UniProt Q8N2G4 21-117)
T2 sequence: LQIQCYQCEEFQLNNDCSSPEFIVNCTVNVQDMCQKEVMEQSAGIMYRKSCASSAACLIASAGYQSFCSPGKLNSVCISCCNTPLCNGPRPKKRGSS

T3: recombinant TAT226-His fusion protein (human, UniProt Q8N2G4 21-115)
T3 construct: also called recombinant antigen; not shown: C-terminal polyhistidine tag
T3 sequence: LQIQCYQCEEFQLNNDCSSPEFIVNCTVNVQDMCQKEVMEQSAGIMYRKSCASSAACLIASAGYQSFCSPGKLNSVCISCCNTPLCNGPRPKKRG

B1: YWO.49.H2-MC-vc-PAB-MMAF (antibody, V domains shown)
VH: EVQLVESGGGLVQPGGSLRLSCAASGFTITNYGIHWVRQAPGKGLEWVGRIYPDSGATYYADSVKGRFTISADTSKNTAYLQMNSLRAEDTAVYYCARKLWVSLAPMDYWGQGTLVTVSS
VL: DIQMTQSPSSLSASVGDRVTITCRASQDVSTAVAWYQQKPGKAPKLLIYSASFLYSGVPSRFSGSGSGTDFTLTISSLQPEDFATYYCQQSYGTPFIFGQGTKVEIKR
modifications: MC-vc-PAB-MMAF conjugated to cysteine residues of the partially reduced antibody; average drug load 4.7 per antibody
B2: YWO.49.H6-MC-vc-PAB-MMAF (antibody, V domains shown)
VH: B1 VH with V102I, L104I, P106G
VL: B1 VL with Q90H, G93A, I97T
modifications: MC-vc-PAB-MMAF conjugated to cysteine residues of the partially reduced antibody; average drug load 4.4 per antibody
B3: YWO.49.H2-MC-vc-PAB-MMAE (antibody, V domains shown)
VH: B1 VH
VL: B1 VL
modifications: MC-vc-PAB-MMAE conjugated to cysteine residues of the partially reduced antibody; average drug load 3.8 per antibody
B4: YWO.49.H6-MC-vc-PAB-MMAE (antibody, V domains shown)
VH: B1 VH with V102I, L104I, P106G
VL: B1 VL with Q90H, G93A, I97T
modifications: MC-vc-PAB-MMAE conjugated to cysteine residues of the partially reduced antibody; average drug load 4.4 per antibody
B5: YWO.49.H6 (antibody, V domains shown)
VH: B1 VH with V102I, L104I, P106G
VL: B1 VL with Q90H, G93A, I97T
notes: also called YWO.H6
B6: YWO.49 (antibody, V domains shown)
VH: B1 VH with L104R, P106G
VL: B1 VL with G93T, F96P, I97T
notes: detected with anti-human IgG; also called anti-TAT226 monoclonal antibody YWO.49
B7: YWO.49.H2 (antibody, V domains shown)
VH: B1 VH
VL: B1 VL
B8: YWO.49.C9 (antibody, V domains shown)
VH: B1 VH with S103T, P106S
VL: B1 VL with Q90K, G93N, F96P, I97T
B9: YWO.49.B7 (antibody, V domains shown)
VH: B1 VH with P106A
VL: B1 VL with Q90R, Y92V, G93F, F96P, I97A

target: T1, recombinant gD:human TAT226 fusion …; experiment: cell-based or functional assay

In order of falling “IC50, in vitro cell killing assay on HCT116#9-4 transfectants (CellTiter-Glo, 3 days)” value:
1. B1  ~0.05 nM
2. B2  ~0.05 nM

target: T2, human TAT226 expressed on the surface …; experiment: cell-based or functional assay

In order of falling “IC50, OVCAR3 in vitro cell killing assay (CellTiter-Glo, 5 days)” value:
1. B3  ~0.2 nM
2. B4  ~0.2 nM
3. B1  ~0.005 nM
4. B2  ~0.005 nM

target: T3, recombinant TAT226-His fusion protein; experiment: SPR, BIACORE 3000, IgG immobilised on CM5 chip, TAT226-His injected (0.7-500 nM), 25 C
Protocol: The binding affinity of YWO.49, YWO.49.B7, YWO.49.C9, YWO.49.H2, and YWO.49.H6 for recombinant antigen was determined by surface plasmon resonance measurement using a BIACORE® 3000 system (Biacore, Inc., Piscataway, N.J.). Briefly, carboxymethylated dextran biosensor chips (CM5, Biacore Inc.) were activated with N-ethyl-N′-(3-dimethylaminopropyl)-carbodiimide hydrochloride (EDC) and N-hydroxysuccinimide (NHS) according to the supplier's instructions. Anti-TAT226 antibody was diluted to 5 ug/ml with 10 mM sodium acetate, pH 4.8, before injection at a flow rate of 5 μl/minute to achieve approximately 500 response units (RU) of coupled antibody. Next, 1M ethanolamine was injected to block unreacted groups. For kinetics measurements, two-fold serial dilutions of TAT226-His (0.7 nM to 500 nM) were injected in PBS with 0.05% Tween 20 at 25° C. at a flow rate of 25 μl/min Association rates (kₒₙ) and dissociation rates (koff) were calculated using a simple one-to-one Langmuir binding model (BIAevaluation Software version 3.2). The equilibrium dissociation constant (Kd) was calculated as the ratio koff/kₒₙ.

Compared with B5, B6 is 940-fold higher in Kd: 0.05 nM for the first, 47.2 nM for the second.

First: B7
Second: B8
The Kd of the first is higher: 0.23 nM for the first, < 0.03 nM for the second.

With B9 the Kd was < 0.18 nM.

target: T2, human TAT226 expressed on the surface …; experiment: competition of iodinated antibody with unlabeled antibody on OVCAR3 cells, Scatchard analysis
Protocol: The binding affinity of YWO.49.H2 and YWO.49.H6 for TAT226 expressed on the surface of OVCAR3 cells was examined using a competition assay. Briefly, labeled (iodinated) YWO.49.H2 or YWO.49.H6 was allowed to bind to OVCAR3 cells in the presence of unlabeled antibody. Binding affinity of the antibodies was determined in accordance with the Scatchard analysis methodology initially described in Munson et al., Anal. Biochem. 107:220 (1980).

In order of falling Kd:
1. B5  0.404 nM
2. B7  0.348 nM
